This test addresses activated Cry1Ac toxin of Bacillus thuringiensis subsp. kurstaki HD73 (Bacillus thuringiensis subsp. kurstaki HD73) (UniProt P05068). Description: SPR; BIAcore 3000; Cry1Ac immobilised on CM5 chip by amine coupling; HaALP1f injected at 31.25-500 nM; HBS (10 mM HEPES, 150 mM NaCl, 0.005% Tween20, pH 7.4), 40 ul/min; 1:1 Langmuir model; apparent rate constants.

We go through 1 substance from publication PMC4401514.

Take “HaALP1f, his-tagged fragment of alkaline phosphatase HaALP1 from Helicoverpa armigera (from UniProt B4Z1D6 192-451) (domain or fragment)”: the Kd came to 7.58 nM, the koff was determined as 0.00248 s⁻¹ and the kon amounted to 327000 M⁻¹ s⁻¹.
